Source: US20070020743A1, “Undecaprenyl pyrophosphate synthase (upps)enzyme and methods of use” (priority 2001, published 2007)

Key:
[1] = tested on: CC(C)=CCC/C(C)=C/CC/C(C)=C/CO[P@@](=O)(O)OP(=O)(O)O; assay: purified protein, by the assay type; conditions: other: substrate Km of S. pneumoniae UPPS; pH optimum 7.5-8.0; pH 7.5; 25.0 °C
Procedure: The reaction was incubated at 25° C. for 25 min and stopped by addition of EDTA to 50 mM. The reaction was extracted with equal volume of 1-butanol and the radioactivity in the butanol phase was measured with a liquid scintillation counter (Shimizu, N., T. Koyama, and K. Ogura. (1998) J. Biol. Chem. 273:19476-19481).

[2] = tested on: C=C(C)CCO[P@@](=O)(O)OP(=O)(O)O; assay: purified protein, by the assay type; conditions: other: substrate Km of S. pneumoniae UPPS; pH optimum 7.5-8.0; pH 7.5; 25.0 °C

Substance: S. pneumoniae UPPS (Streptococcus pneumoniae TIGR4)
- Km [1]: 0.5 µM
- Km [2]: 3.6 µM
